Measured values reported in paper PMC5105069, “Structural assemblies of the di- and oligomeric G-protein coupled receptor TGR5 in live cells: an MFIS-FRET and integrative modelling study” (Scientific Reports, 2016).

T1: TGR5 wt fused to GFP or mCherry (TGR5 wt-GFP and TGR5 wt-mCherry), Q8TDU6
T1 chain: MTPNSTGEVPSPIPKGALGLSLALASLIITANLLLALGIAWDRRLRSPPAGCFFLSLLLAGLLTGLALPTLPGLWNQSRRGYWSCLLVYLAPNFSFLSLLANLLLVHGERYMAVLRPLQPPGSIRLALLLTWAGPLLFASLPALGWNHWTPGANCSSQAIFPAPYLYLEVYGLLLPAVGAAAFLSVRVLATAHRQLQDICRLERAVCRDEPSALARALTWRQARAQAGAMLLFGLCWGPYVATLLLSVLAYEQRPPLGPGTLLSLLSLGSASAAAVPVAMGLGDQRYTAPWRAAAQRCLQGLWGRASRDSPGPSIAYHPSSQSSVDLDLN


How the values were obtained:
[1] = molecular target: T1, TGR5 wt fused to GFP or mCherry (TGR5 …); test: FRET or BRET; MFIS-FRET in live HEK293 cells; GFP (donor) and mCherry (acceptor) on the C-terminus of TGR5; acceptor titration up to donor:acceptor 1:40; total TGR5 0.5-13 uM; also before and after 10 uM taurocholate (no change); KD2 is of the step tetramer to dimers, modelled by a dimer/tetramer simulation of E_mean against the donor-acceptor ratio with KD1 of the dimer fixed to 10 nM; conditions: remark: other sources report otherwise
[2] = molecular target: the molecule itself; test: as above

KD2 (tetramer to dimers, modeled) [1] [nM]	stoichiometry N [1]	Binder	stoichiometry N [2]
70	4	TGR5 wt fused to GFP or mCherry (TGR5 wt-GFP and TGR5 wt-mCherry), Q8TDU6 1-330 (receptor) MTPNSTGEVPSPIPKGALGLSLALASLIITANLLLALGIAWDRRLRSPPAGCFFLSLLLAGLLTGLALPTLPGLWNQSRRGYWSCLLVYLAPNFSFLSLLANLLLVHGERYMAVLRPLQPPGSIRLALLLTWAGPLLFASLPALGWNHWTPGANCSSQAIFPAPYLYLEVYGLLLPAVGAAAFLSVRVLATAHRQLQDICRLERAVCRDEPSALARALTWRQARAQAGAMLLFGLCWGPYVATLLLSVLAYEQRPPLGPGTLLSLLSLGSASAAAVPVAMGLGDQRYTAPWRAAAQRCLQGLWGRASRDSPGPSIAYHPSSQSSVDLDLN	
		TGR5 Y111F fused to GFP or mCherry (receptor, UniProt Q8TDU6 1-330, looked up, TGR5 (GPBAR-1, M-BAR) with Y111F in the ERY motif; Two differently tagged copies (GFP donor, mCherry acceptor), co-expressed; Each copy carries only one fluorescent protein; also called Y111F variant; source: HEK293, transiently transfected, in live cells; not shown: GFP, C-terminal, kept; mCherry, C-terminal, kept) MTPNSTGEVPSPIPKGALGLSLALASLIITANLLLALGIAWDRRLRSPPAGCFFLSLLLAGLLTGLALPTLPGLWNQSRRGYWSCLLVYLAPNFSFLSLLANLLLVHGERFMAVLRPLQPPGSIRLALLLTWAGPLLFASLPALGWNHWTPGANCSSQAIFPAPYLYLEVYGLLLPAVGAAAFLSVRVLATAHRQLQDICRLERAVCRDEPSALARALTWRQARAQAGAMLLFGLCWGPYVATLLLSVLAYEQRPPLGPGTLLSLLSLGSASAAAVPVAMGLGDQRYTAPWRAAAQRCLQGLWGRASRDSPGPSIAYHPSSQSSVDLDLN	4
		TGR5 Y111A fused to GFP or mCherry (receptor, UniProt Q8TDU6 1-330, looked up, TGR5 (GPBAR-1, M-BAR) with Y111A in the ERY motif; Two differently tagged copies (GFP donor, mCherry acceptor), co-expressed; Each copy carries only one fluorescent protein; also called Y111A variant; source: HEK293, transiently transfected, in live cells; not shown: GFP, C-terminal, kept; mCherry, C-terminal, kept) MTPNSTGEVPSPIPKGALGLSLALASLIITANLLLALGIAWDRRLRSPPAGCFFLSLLLAGLLTGLALPTLPGLWNQSRRGYWSCLLVYLAPNFSFLSLLANLLLVHGERAMAVLRPLQPPGSIRLALLLTWAGPLLFASLPALGWNHWTPGANCSSQAIFPAPYLYLEVYGLLLPAVGAAAFLSVRVLATAHRQLQDICRLERAVCRDEPSALARALTWRQARAQAGAMLLFGLCWGPYVATLLLSVLAYEQRPPLGPGTLLSLLSLGSASAAAVPVAMGLGDQRYTAPWRAAAQRCLQGLWGRASRDSPGPSIAYHPSSQSSVDLDLN	2
